± gives the uncertainty stated by the source.

This data set in a line: abundance fitness (aPCA) (normalised: wild type 0, dead -1); higher = more abundant; growth selection in yeast, the domain comes from the species named. Conditions: Homo sapiens.
Substance “Transcriptional activator Myb S146P, P10242” returned an abundance fitness of -0.108 ± 0.26. For “Transcriptional activator Myb S146V, P10242” the value was -0.017 ± 0.29; for “Transcriptional activator Myb S187A, P10242”, -0.075 ± 0.093. The value for “Transcriptional activator Myb S187C, P10242” was -0.061 ± 0.1; that for “Transcriptional activator Myb S187D, P10242” was 0.077 ± 0.12; that for “Transcriptional activator Myb S187E, P10242” was -0.001 ± 0.067. The value for “Transcriptional activator Myb S187F, P10242” was -0.26 ± 0.085; that for “Transcriptional activator Myb S187G, P10242” was -0.023 ± 0.049. “Transcriptional activator Myb S187H, P10242” came in with an abundance fitness of -0.011 ± 0.17. Take “Transcriptional activator Myb S187I, P10242”: the abundance fitness was -0.033 ± 0.14. “Transcriptional activator Myb S187K, P10242” came in with an abundance fitness of -0.058 ± 0.1.

As to “Transcriptional activator Myb S187L, P10242”, the abundance fitness is -0.019 ± 0.066. The value for “Transcriptional activator Myb S187M, P10242” was -0.188 ± 0.13; that for “Transcriptional activator Myb S187N, P10242” was -0.161 ± 0.14; that for “Transcriptional activator Myb S187P, P10242” was -0.589 ± 0.11. As to “Transcriptional activator Myb S187Q, P10242”, the abundance fitness worked out at 0.125 ± 0.11. As to “Transcriptional activator Myb S187R, P10242”, the abundance fitness was -0.054 ± 0.049. In turn, “Transcriptional activator Myb S187T, P10242” returned an abundance fitness of 0.124 ± 0.1. Take “Transcriptional activator Myb S187V, P10242”: the abundance fitness was -0.081 ± 0.061.

As for “Transcriptional activator Myb S187W, P10242”, the abundance fitness was -0.108 ± 0.07. The value for “Transcriptional activator Myb S202C, P10242” was -0.108 ± 0.1; that for “Transcriptional activator Myb S202D, P10242” was -0.069 ± 0.087; that for “Transcriptional activator Myb S202E, P10242” was 0.042 ± 0.073. For “Transcriptional activator Myb S202F, P10242” the value was -0.045 ± 0.093; for “Transcriptional activator Myb S202G, P10242”, 0.027 ± 0.047; for “Transcriptional activator Myb S202I, P10242”, -0.021 ± 0.19. The value for “Transcriptional activator Myb S202L, P10242” was -0.181 ± 0.073; that for “Transcriptional activator Myb S202M, P10242” was -0.186 ± 0.12; that for “Transcriptional activator Myb S202N, P10242” was -0.237 ± 0.18.

Consider “Transcriptional activator Myb S202P, P10242”, for which the abundance fitness was -0.061 ± 0.14.

On to “Transcriptional activator Myb S202Q, P10242”, for which the abundance fitness is -0.102 ± 0.16. The value for “Transcriptional activator Myb S202R, P10242” was -0.144 ± 0.063; that for “Transcriptional activator Myb S202T, P10242” was 0.012 ± 0.11; that for “Transcriptional activator Myb S202V, P10242” was -0.001 ± 0.064. As to “Transcriptional activator Myb S202W, P10242”, the abundance fitness was -0.211 ± 0.083. “Transcriptional activator Myb S202Y, P10242”: the abundance fitness was -0.218 ± 0.17. In turn, “Transcriptional activator Myb S203A, P10242” gave an abundance fitness of -0.01 ± 0.085. “Transcriptional activator Myb S203C, P10242” gave an abundance fitness of -0.112 ± 0.094. In the case of “Transcriptional activator Myb S203D, P10242”, the abundance fitness is -0.079 ± 0.15. In turn, “Transcriptional activator Myb S203E, P10242” displayed an abundance fitness of 0.079 ± 0.16.

For the substance “Transcriptional activator Myb S203F, P10242”, the abundance fitness was -0.29 ± 0.1. The value for “Transcriptional activator Myb S203G, P10242” was 0.072 ± 0.066; that for “Transcriptional activator Myb S203H, P10242” was -0.264 ± 0.12; that for “Transcriptional activator Myb S203K, P10242” was 0.14 ± 0.19. “Transcriptional activator Myb S203L, P10242”: the abundance fitness is -0.042 ± 0.094.

In turn, “Transcriptional activator Myb S203M, P10242” displayed an abundance fitness of -0.054 ± 0.15.

In the case of “Transcriptional activator Myb S203N, P10242”, the abundance fitness was -0.108 ± 0.1. In turn, “Transcriptional activator Myb S203P, P10242” came in with an abundance fitness of -0.139 ± 0.12. Substance “Transcriptional activator Myb S203Q, P10242” gave an abundance fitness of 0.061 ± 0.13. The value for “Transcriptional activator Myb S203R, P10242” was -0.145 ± 0.074; that for “Transcriptional activator Myb S203T, P10242” was 0.006 ± 0.1; that for “Transcriptional activator Myb S203V, P10242” was 0.055 ± 0.082.

Consider “Transcriptional activator Myb S203W, P10242”, for which the abundance fitness is -0.015 ± 0.097. “Transcriptional activator Myb S203Y, P10242” returned an abundance fitness of -0.113 ± 0.15. For “Transcriptional activator Myb T145A, P10242” the value was -0.066 ± 0.061; for “Transcriptional activator Myb T145C, P10242”, -0.218 ± 0.16. For “Transcriptional activator Myb T145D, P10242” the value was 0.144 ± 0.15; for “Transcriptional activator Myb T145E, P10242”, 0.055 ± 0.12.

Turning to “Transcriptional activator Myb T145F, P10242”, the abundance fitness was -0.123 ± 0.25. On to “Transcriptional activator Myb T145G, P10242”, for which the abundance fitness is -0.091 ± 0.061. Substance “Transcriptional activator Myb T145I, P10242” displayed an abundance fitness of 0.228 ± 0.14. Regarding “Transcriptional activator Myb T145L, P10242”, the abundance fitness is -0.122 ± 0.13. “Transcriptional activator Myb T145M, P10242”: the abundance fitness stood at 0.117 ± 0.12. In the case of “Transcriptional activator Myb T145N, P10242”, the abundance fitness is -0.179 ± 0.26.

The substance “Transcriptional activator Myb T145P, P10242” yielded an abundance fitness of -0.212 ± 0.12. For “Transcriptional activator Myb T145Q, P10242” the value was -0.171 ± 0.15. For the substance “Transcriptional activator Myb T145R, P10242”, the abundance fitness was -0.232 ± 0.071. With “Transcriptional activator Myb T145S, P10242”, the abundance fitness was -0.042 ± 0.077.

Source of the values: the Human Domainome abundance scans (Beltran et al. 2025).
